In article PMC3422348:

Target: Cdc37 (Cell division cycle protein 37) (human (endogenous in MDA-MB-453 and MDA-MB-231)) (UniProt Q16543)
Test: co-IP; membrane fractions of MDA-MB-453 and MDA-MB-231 cells immunoprecipitated with anti-Cdc37 (18 h, 4°C, protein G-Sepharose), Western blot with anti-HSP90, anti-HER2, anti-EGFR; cells cultured in control medium or with 200 µg/ml anti-Cdc37 or 200 µg/ml mAb 4C5 for 16 h; densitometry

UniProt Q16543, sequence (Q16543 whole entry): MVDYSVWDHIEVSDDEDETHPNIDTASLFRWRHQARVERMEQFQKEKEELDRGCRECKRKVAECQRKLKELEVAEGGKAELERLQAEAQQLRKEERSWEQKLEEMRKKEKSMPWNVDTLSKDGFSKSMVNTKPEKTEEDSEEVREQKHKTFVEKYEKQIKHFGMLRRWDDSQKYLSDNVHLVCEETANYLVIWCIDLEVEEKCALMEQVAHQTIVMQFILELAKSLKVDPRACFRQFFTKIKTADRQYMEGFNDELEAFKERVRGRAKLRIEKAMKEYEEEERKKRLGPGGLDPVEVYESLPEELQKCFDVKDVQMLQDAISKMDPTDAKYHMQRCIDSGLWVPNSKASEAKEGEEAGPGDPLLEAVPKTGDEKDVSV

**Q.** Which percent decrease of the co-precipitate with 200 µg/ml anti-Cdc37 in the medium (MDA-MB 231) does the source give for “HSP90 (from UniProt P07900 1-732) (natural protein)” here?
**A.** 56%

**Q.** And the percent decrease of the co-precipitate with 200 µg/ml anti-Cdc37 in the medium (MDA-MB 453)?
**A.** 33%

**Q.** And the percent decrease of the co-precipitate with 200 µg/ml mAb 4C5 in the medium (MDA-MB 231)?
**A.** 88%

**Q.** And the percent decrease of the co-precipitate with 200 µg/ml mAb 4C5 in the medium (MDA-MB 453)?
**A.** 60%
